Data reported in patent US10450368.

How the values were obtained:
[1] = target: Jo-1 (UniProt P12081); experiment: AtheNA, Ab 12.5 ug/ml
[2] = target: SSB (UniProt P05455); experiment: AtheNA, Ab 12.5 ug/ml
[3] = target: Centromere B (UniProt P07199); experiment: AtheNA, Ab 12.5 ug/ml
[4] = target: Sm (Smith antigen); experiment: AtheNA, Ab 12.5 ug/ml
[5] = target: Scl-70 (UniProt P11387); experiment: AtheNA, Ab 12.5 ug/ml
[6] = target: RNP (ribonucleoprotein); experiment: AtheNA, Ab 12.5 ug/ml
[7] = target: SSA; experiment: AtheNA, Ab 12.5 ug/ml
[8] = target: Histones; experiment: AtheNA, Ab 12.5 ug/ml
[9] = target: Jo-1 (UniProt P12081); experiment: AtheNA, Ab 25 ug/ml
[10] = target: SSB (UniProt P05455); experiment: AtheNA, Ab 25 ug/ml
[11] = target: Centromere B (UniProt P07199); experiment: AtheNA, Ab 25 ug/ml
[12] = target: Sm (Smith antigen); experiment: AtheNA, Ab 25 ug/ml
[13] = target: RNP (ribonucleoprotein); experiment: AtheNA, Ab 25 ug/ml
[14] = target: SSA; experiment: AtheNA, Ab 25 ug/ml
[15] = target: Histones; experiment: AtheNA, Ab 25 ug/ml
[16] = target: Jo-1 (UniProt P12081); experiment: AtheNA, Ab 25 ug/ml; remark: listed apart in the source
[17] = target: SSB (UniProt P05455); experiment: AtheNA, Ab 25 ug/ml; remark: listed apart in the source
[18] = target: Centromere B (UniProt P07199); experiment: AtheNA, Ab 25 ug/ml; remark: listed apart in the source
[19] = target: Sm (Smith antigen); experiment: AtheNA, Ab 25 ug/ml; remark: listed apart in the source
[20] = target: Scl-70 (UniProt P11387); experiment: AtheNA, Ab 25 ug/ml
[21] = target: RNP (ribonucleoprotein); experiment: AtheNA, Ab 25 ug/ml; remark: listed apart in the source
[22] = target: SSA; experiment: AtheNA, Ab 25 ug/ml; remark: listed apart in the source
[23] = target: Histones; experiment: AtheNA, Ab 25 ug/ml; remark: listed apart in the source
[24] = target: Jo-1 (UniProt P12081); experiment: AtheNA, Ab 6.25 ug/ml
[25] = target: SSB (UniProt P05455); experiment: AtheNA, Ab 6.25 ug/ml
[26] = target: Centromere B (UniProt P07199); experiment: AtheNA, Ab 6.25 ug/ml
[27] = target: Sm (Smith antigen); experiment: AtheNA, Ab 6.25 ug/ml
[28] = target: Scl-70 (UniProt P11387); experiment: AtheNA, Ab 6.25 ug/ml
[29] = target: RNP (ribonucleoprotein); experiment: AtheNA, Ab 6.25 ug/ml
[30] = target: SSA; experiment: AtheNA, Ab 6.25 ug/ml
[31] = target: Histones; experiment: AtheNA, Ab 6.25 ug/ml
[32] = target: Jo-1 (UniProt P12081); experiment: AtheNA, Ab 50 ug/ml
[33] = target: SSB (UniProt P05455); experiment: AtheNA, Ab 50 ug/ml
[34] = target: Jo-1 (UniProt P12081); experiment: AtheNA, Ab 50 ug/ml; remark: listed apart in the source
[35] = target: SSB (UniProt P05455); experiment: AtheNA, Ab 50 ug/ml; remark: listed apart in the source
[36] = target: Scl-70 (UniProt P11387); experiment: AtheNA, Ab 25 ug/ml; remark: listed apart in the source
[37] = target: CH505.M10D8gp120; experiment: direct-binding ELISA
[38] = target: CH505w136.B12D8gp120 (HIV-1); experiment: direct-binding ELISA
[39] = target: CH505.M19D8gp120; experiment: direct-binding ELISA
[40] = target: CH505w136.B4D8gp120 (HIV-1); experiment: direct-binding ELISA
[41] = target: CH505w160.C11D8gp120 (HIV-1); experiment: direct-binding ELISA
[42] = target: CH505.M7D8gp120/293F; experiment: direct-binding ELISA
[43] = target: CH505w160.T2D8gp120 (HIV-1); experiment: direct-binding ELISA
[44] = target: CH505.TF mutant gp120 M20 (HIV-1); experiment: direct-binding ELISA
[45] = target: CH505_w137V201B12.D11gp120 (HIV-1); experiment: direct-binding ELISA
[46] = target: CH505w160.C4D8gp120 (HIV-1); experiment: direct-binding ELISA
[47] = target: CH505w136.B2D8gp120/293F (HIV-1); experiment: direct-binding ELISA
[48] = target: CH505_w137V209C12.D11gp120 (HIV-1); experiment: direct-binding ELISA
[49] = target: CH505.M5D8gp120293F; experiment: direct-binding ELISA
[50] = target: CH505w136.B8D8gp120 (HIV-1); experiment: direct-binding ELISA
[51] = target: CH505w160.C12D8gp120 (HIV-1); experiment: direct-binding ELISA
[52] = target: CH505w160.T4D8gp120/293F (HIV-1); experiment: direct-binding ELISA
[53] = target: CH505.TF mutant gp120 M6 (HIV-1); experiment: direct-binding ELISA
[54] = target: CH505w136.B10D8gp120 (HIV-1); experiment: direct-binding ELISA
[55] = target: CH505w136.B29D8gp120 (HIV-1); experiment: direct-binding ELISA
[56] = target: CH505w160.A1D8gp120 (HIV-1); experiment: direct-binding ELISA
[57] = target: CH505w136.B18D8gp120 (HIV-1); experiment: direct-binding ELISA
[58] = target: CH505w136.B27D8gp120 (HIV-1); experiment: direct-binding ELISA
[59] = target: CH505w160.C14D8gp120 (HIV-1); experiment: direct-binding ELISA
[60] = target: CH505w136.B36D8gp120 (HIV-1); experiment: direct-binding ELISA
[61] = target: CH505w136.B20D8gp120 (HIV-1); experiment: direct-binding ELISA
[62] = target: CH505.TF mutant gp120 M8 (HIV-1); experiment: direct-binding ELISA
[63] = target: CH505w160.D1D8gp120 (HIV-1); experiment: direct-binding ELISA
[64] = target: CH505w160.D5D8gp120/293F (HIV-1); experiment: direct-binding ELISA
[65] = target: CH505.M9D8gp120/293F; experiment: direct-binding ELISA
[66] = target: CH505.M11D8gp120/293F; experiment: direct-binding ELISA
[67] = target: CH505w136.B3D8gp120/293F (HIV-1); experiment: direct-binding ELISA
[68] = target: CH505.M21D8gp120/293F; experiment: direct-binding ELISA
[69] = target: CH505w160.C2D8gp120 (HIV-1); experiment: direct-binding ELISA
[70] = target: CH505w136.B5D8gp120 (HIV-1); experiment: direct-binding ELISA

Chain of Centromere B (P07199 whole entry): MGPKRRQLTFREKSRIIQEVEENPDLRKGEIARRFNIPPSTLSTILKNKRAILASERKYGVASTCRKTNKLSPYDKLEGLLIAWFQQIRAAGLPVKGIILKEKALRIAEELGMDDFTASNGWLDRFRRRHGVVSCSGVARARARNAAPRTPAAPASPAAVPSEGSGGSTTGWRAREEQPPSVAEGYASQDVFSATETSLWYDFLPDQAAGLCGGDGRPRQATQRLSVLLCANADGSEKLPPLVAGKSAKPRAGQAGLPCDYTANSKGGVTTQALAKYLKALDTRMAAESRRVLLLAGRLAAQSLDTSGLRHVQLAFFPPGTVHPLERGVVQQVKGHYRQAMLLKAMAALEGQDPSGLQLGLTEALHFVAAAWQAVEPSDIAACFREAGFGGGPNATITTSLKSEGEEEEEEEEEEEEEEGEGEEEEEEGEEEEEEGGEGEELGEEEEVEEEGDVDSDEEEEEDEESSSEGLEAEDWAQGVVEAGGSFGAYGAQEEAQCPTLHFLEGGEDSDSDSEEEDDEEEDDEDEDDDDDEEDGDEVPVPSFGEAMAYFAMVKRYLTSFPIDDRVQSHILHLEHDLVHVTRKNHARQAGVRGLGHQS
Chain of SSB (P05455 whole entry): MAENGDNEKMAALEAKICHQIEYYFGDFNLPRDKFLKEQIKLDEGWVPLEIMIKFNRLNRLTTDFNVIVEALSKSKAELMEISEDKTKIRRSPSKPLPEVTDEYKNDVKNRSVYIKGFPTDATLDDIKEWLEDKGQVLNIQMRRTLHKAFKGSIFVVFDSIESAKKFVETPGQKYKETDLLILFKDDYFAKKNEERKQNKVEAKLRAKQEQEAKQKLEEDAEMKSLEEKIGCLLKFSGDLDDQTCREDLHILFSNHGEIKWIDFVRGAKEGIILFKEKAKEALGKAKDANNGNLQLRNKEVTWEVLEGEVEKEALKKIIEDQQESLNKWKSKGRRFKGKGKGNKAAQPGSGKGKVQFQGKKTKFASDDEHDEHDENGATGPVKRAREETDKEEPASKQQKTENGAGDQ
Chain of Jo-1 (P12081 whole entry): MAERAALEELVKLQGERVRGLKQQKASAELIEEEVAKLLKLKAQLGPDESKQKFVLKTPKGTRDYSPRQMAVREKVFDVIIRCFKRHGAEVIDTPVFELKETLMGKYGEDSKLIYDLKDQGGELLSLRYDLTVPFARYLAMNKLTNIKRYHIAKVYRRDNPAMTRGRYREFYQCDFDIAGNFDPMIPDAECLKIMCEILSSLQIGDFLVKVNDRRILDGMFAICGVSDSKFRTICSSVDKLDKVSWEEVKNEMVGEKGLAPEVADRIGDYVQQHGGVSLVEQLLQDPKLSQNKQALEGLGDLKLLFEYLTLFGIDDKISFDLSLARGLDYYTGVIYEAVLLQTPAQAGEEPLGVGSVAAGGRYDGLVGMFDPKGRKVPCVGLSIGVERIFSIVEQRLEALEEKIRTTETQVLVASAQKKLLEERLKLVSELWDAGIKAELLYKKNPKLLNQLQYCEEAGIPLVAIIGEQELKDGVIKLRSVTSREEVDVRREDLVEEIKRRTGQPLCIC
Chain of Scl-70 (P11387 whole entry): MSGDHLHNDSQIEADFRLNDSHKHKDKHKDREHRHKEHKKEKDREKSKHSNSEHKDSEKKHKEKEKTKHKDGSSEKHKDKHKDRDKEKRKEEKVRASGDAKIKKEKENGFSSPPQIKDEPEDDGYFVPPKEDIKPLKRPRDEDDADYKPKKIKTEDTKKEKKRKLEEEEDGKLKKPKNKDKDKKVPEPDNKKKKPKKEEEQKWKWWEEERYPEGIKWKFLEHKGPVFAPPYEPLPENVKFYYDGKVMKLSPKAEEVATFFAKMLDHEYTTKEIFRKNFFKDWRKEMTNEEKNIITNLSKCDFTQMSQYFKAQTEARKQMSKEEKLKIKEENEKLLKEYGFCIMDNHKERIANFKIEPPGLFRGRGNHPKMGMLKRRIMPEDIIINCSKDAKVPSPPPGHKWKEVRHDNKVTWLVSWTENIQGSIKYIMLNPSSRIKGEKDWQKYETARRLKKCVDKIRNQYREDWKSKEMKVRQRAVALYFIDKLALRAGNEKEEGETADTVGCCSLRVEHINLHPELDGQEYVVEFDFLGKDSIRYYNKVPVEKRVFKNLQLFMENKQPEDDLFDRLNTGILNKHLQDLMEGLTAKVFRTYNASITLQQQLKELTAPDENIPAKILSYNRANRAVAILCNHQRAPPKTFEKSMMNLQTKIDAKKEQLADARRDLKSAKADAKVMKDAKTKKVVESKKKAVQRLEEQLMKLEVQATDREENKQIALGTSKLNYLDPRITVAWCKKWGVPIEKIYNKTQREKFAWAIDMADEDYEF

synagis (antibody)
AtheNA signal (relative luminescence units) [1]: 6
AtheNA signal (relative luminescence units) [2]: 5
AtheNA signal (relative luminescence units) [3]: 2
AtheNA signal (relative luminescence units) [4]: 7
AtheNA signal (relative luminescence units) [5]: 3
AtheNA signal (relative luminescence units) [6]: 3
AtheNA signal (relative luminescence units) [7]: 2
AtheNA signal (relative luminescence units) [8]: 3
AtheNA signal (relative luminescence units) [9]: 4
AtheNA signal (relative luminescence units) [10]: 4
AtheNA signal (relative luminescence units) [11]: 2
AtheNA signal (relative luminescence units) [12]: 4
AtheNA signal (relative luminescence units) [13]: 0
AtheNA signal (relative luminescence units) [14]: 11
AtheNA signal (relative luminescence units) [15]: 2
AtheNA signal (relative luminescence units) [16]: 2
AtheNA signal (relative luminescence units) [17]: 7
AtheNA signal (relative luminescence units) [18]: 4
AtheNA signal (relative luminescence units) [19]: 3
AtheNA signal (relative luminescence units) [20]: 2
AtheNA signal (relative luminescence units) [21]: 4
AtheNA signal (relative luminescence units) [22]: 3
AtheNA signal (relative luminescence units) [23]: 5
AtheNA signal (relative luminescence units) [24]: 1
AtheNA signal (relative luminescence units) [25]: 5
AtheNA signal (relative luminescence units) [26]: 2
AtheNA signal (relative luminescence units) [27]: 2
AtheNA signal (relative luminescence units) [28]: 2
AtheNA signal (relative luminescence units) [29]: 3
AtheNA signal (relative luminescence units) [30]: 2
AtheNA signal (relative luminescence units) [31]: 3

4E10 (antibody)
AtheNA signal (relative luminescence units) [32]: 190
AtheNA signal (relative luminescence units) [33]: 263
AtheNA signal (relative luminescence units) [34]: 227
AtheNA signal (relative luminescence units) [35]: 207
AtheNA signal (relative luminescence units) [1]: 131
AtheNA signal (relative luminescence units) [2]: 199
AtheNA signal (relative luminescence units) [3]: 1
AtheNA signal (relative luminescence units) [4]: 3
AtheNA signal (relative luminescence units) [5]: 0
AtheNA signal (relative luminescence units) [6]: 3
AtheNA signal (relative luminescence units) [7]: 21
AtheNA signal (relative luminescence units) [8]: 7
AtheNA signal (relative luminescence units) [9]: 206
AtheNA signal (relative luminescence units) [10]: 189
AtheNA signal (relative luminescence units) [11]: 9
AtheNA signal (relative luminescence units) [12]: 46
AtheNA signal (relative luminescence units) [36]: 4
AtheNA signal (relative luminescence units) [13]: 20
AtheNA signal (relative luminescence units) [14]: 81
AtheNA signal (relative luminescence units) [15]: 24
AtheNA signal (relative luminescence units) [16]: 160
AtheNA signal (relative luminescence units) [17]: 227
AtheNA signal (relative luminescence units) [18]: 3
AtheNA signal (relative luminescence units) [19]: 2
AtheNA signal (relative luminescence units) [20]: 1
AtheNA signal (relative luminescence units) [21]: 3
AtheNA signal (relative luminescence units) [22]: 33
AtheNA signal (relative luminescence units) [23]: 10
AtheNA signal (relative luminescence units) [24]: 113
AtheNA signal (relative luminescence units) [25]: 178
AtheNA signal (relative luminescence units) [26]: 2
AtheNA signal (relative luminescence units) [27]: 3
AtheNA signal (relative luminescence units) [28]: 1
AtheNA signal (relative luminescence units) [29]: 3
AtheNA signal (relative luminescence units) [30]: 17
AtheNA signal (relative luminescence units) [31]: 6

CH105 (antibody)
LogAUC [37]: 11.3
LogAUC [38]: 9.67
LogAUC [39]: 10.9
LogAUC [40]: 10.7
LogAUC [41]: 7.7
LogAUC [42]: 10.2
LogAUC [43]: 4.94
LogAUC [44]: 10.6
LogAUC [45]: 11
LogAUC [46]: 6.55
LogAUC [47]: 12.4
LogAUC [48]: 12.7
LogAUC [49]: 8.63
LogAUC [50]: 9.86
LogAUC [51]: 11.1
LogAUC [52]: 12.2
LogAUC [53]: 11.1
LogAUC [54]: 8.52
LogAUC [55]: 10.2
LogAUC [56]: 6.66
LogAUC [57]: 13.7
LogAUC [58]: 10.4
LogAUC [59]: 6.58
LogAUC [60]: 12.8
LogAUC [61]: 10.7
LogAUC [62]: 9.33
LogAUC [63]: 6.03
LogAUC [64]: 4.58
LogAUC [65]: 10.6
LogAUC [66]: 11.7
LogAUC [67]: 12
LogAUC [68]: 11.2
LogAUC [69]: 8.61
LogAUC [70]: 10.6
